Data from publication PMC10709637, “Phospholipids are imported into mitochondria by VDAC, a dimeric beta barrel scramblase” (Nature Communications, 2023).
Values belong to the binder of their own block, whether it stands above or below them.

What was measured:
[1] = biological target: T1, human VDAC2 (Voltage Dependent Anion Channel 2), N-terminal hexahistidine tagged (human), P45880; assay: vesicle occupancy statistics (Poisson analysis of the dithionite channel assay); different amounts of protein reconstituted into a fixed quantity of LUVs; fraction of vesicles with a channel against PPR*, one-phase exponential fit; MW 31 kDa, vesicle diameter 150 nm; settings: remark: other sources report otherwise
T1 chain: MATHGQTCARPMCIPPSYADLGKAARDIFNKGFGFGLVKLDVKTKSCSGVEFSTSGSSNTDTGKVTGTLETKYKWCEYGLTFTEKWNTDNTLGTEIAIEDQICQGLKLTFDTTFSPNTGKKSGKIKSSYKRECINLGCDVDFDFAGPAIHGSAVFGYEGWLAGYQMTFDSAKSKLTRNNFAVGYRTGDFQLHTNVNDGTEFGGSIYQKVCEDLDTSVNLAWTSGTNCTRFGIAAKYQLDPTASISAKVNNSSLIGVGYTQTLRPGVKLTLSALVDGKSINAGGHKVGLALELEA

[2] = biological target: the molecule itself; assay: cross-linking; EGS cross-linking after reconstitution into LUVs (POPC/POPG) in 10 mM MOPS/KOH pH 7.0, 100 mM KCl; 16x mole excess of EGS, 20 °C, 40 min; SDS-PAGE immunoblot (anti-His for human VDAC, anti-VDAC1/Porin for yeast porin)
[3] = biological target: T2, C-terminal Twin-Strep-tagged yeast VDAC (Por1-TS) (S. cerevisiae), P04840; assay: as above; settings: remark: other sources report otherwise
T2 chain: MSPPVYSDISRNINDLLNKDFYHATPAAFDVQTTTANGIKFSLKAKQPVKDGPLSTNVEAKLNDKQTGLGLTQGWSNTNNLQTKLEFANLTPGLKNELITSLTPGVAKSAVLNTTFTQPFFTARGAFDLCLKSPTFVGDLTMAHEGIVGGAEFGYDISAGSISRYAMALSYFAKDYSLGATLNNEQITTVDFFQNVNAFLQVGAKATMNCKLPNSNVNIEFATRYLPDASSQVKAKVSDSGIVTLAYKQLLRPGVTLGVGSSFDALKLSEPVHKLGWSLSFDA

stoichiometry N [1]: 10
B1: human VDAC2 (Voltage Dependent Anion Channel 2), N-terminal hexahistidine tagged, P45880 1-294 (natural protein)
chain: T1 chain

B2: human VDAC1 pentamutant VDAC1-5V (T60V, Y62V, E73V, T83V, S101V), N-terminal hexahistidine tagged (natural protein, UniProt P21796 1-283, looked up)
chain: MAVPPTYADLGKSARDVFTKGYGFGLIKLDLKTKSENGLEFTSSGSANTETTKVTGSLEVKVRWTEYGLTFTVKWNTDNTLGVEITVEDQLARGLKLTFDVSFSPNTGKKNAKIKTGYKREHINLGCDMDFDIAGPSIRGALVLGYEGWLAGYQMNFETAKSRVTQSNFAVGYKTDEFQLHTNVNDGTEFGGSIYQKVNKKLETAVNLAWTAGNSNTRFGIAAKYQIDPDACFSAKVNNSSLIGLGYTQTLKPGIKLTLSALLDGKNVNAGGHKLGLGLEFQA
notes: human VDAC1 with five substitutions to valine; pCold vector
binding result [2]: binds

stoichiometry N [3]: 2
B3: C-terminal Twin-Strep-tagged yeast VDAC (Por1-TS), P04840 1-283 (natural protein)
chain: T2 chain
